Reference: patent US20060110789A1, “Methods to mediate polyketide synthase module effectiveness” (priority 2002, published 2006)
One block for each substance: values may come before it.

Columns and labels:
[1] = target: M3+TE (module 3 of DEBS with its own N-terminal linker, fused to thioesterase) (UniProt Q03132); assay: estimated from the saturation curve of the rate of tetraketide formation against M3+TE concentration at fixed M2 (kinetic, in solution)
[2] = target: (5)M3+TE (module 3 of DEBS with the N-terminal linker of module 5, fused to thioesterase) (UniProt Q03132); assay: estimated from the saturation curve of the rate of tetraketide formation against (5)M3+TE concentration at fixed 0.5 µM M2(4) (kinetic, in solution)
[3] = target: (5)M5+TE (module 5 of DEBS with its own N-terminal linker, fused to thioesterase) (UniProt Q03133); assay: cell-based or functional assay
[4] = target: (3)M5+TE (module 5 of DEBS with the N-terminal linker of module 3, fused to thioesterase) (UniProt Q03133); assay: cell-based or functional assay
[5] = target: (5)M6+TE (module 6 of DEBS with the N-terminal linker of module 5, with thioesterase) (UniProt Q03133); assay: cell-based or functional assay
[6] = target: (5)M2+TE (module 2 of DEBS with the N-terminal linker of module 5, fused to thioesterase) (UniProt Q03131); assay: cell-based or functional assay

Substance: diketide-ACP2(4) (DEBS ACP2 with the C-terminal linker of module 4, loaded with diketide) (from UniProt Q03131 3320-3408; Q03132 3489-3567)
k60 µM, fold decrease against the matched reaction (FIG. 28 C) [3]: 20 fold

Substance: diketide-ACP4(4) (DEBS ACP4 with its natural C-terminal linker, loaded with diketide) (from UniProt Q03132 3398-3567)
maximal rate of elongation of 4a, fold increase against the NAC thioester 2a [3]: > 40 fold
k60 µM, fold decrease against the matched reaction (FIG. 28 B) [4]: 20 fold

Substance: diketide-NovH(4) (NovH fused to the C-terminal linker of DEBS module 4, loaded with diketide) (from UniProt Q03132 3489-3567)
k60 µM [5]: 0.53 min⁻¹

Next, values leading:

Kd [1]: 1.1 µM
Substance: M2 (module 2 of DEBS with its natural C-terminal linker) (from UniProt Q03131 1982-3404; Q03131 3408-3491) (enzyme)

Kd [2]: 2.1 µM
Substance: M2(4) (module 2 of DEBS with the C-terminal linker of module 4) (from UniProt Q03131 1982-3404; Q03132 3489-3567) (enzyme)

k60 µM, fold decrease against diketide-ACP4(4) with the same module [5]: 10 fold
k60 µM (FIG. 29 A) [3]: 0.49 min⁻¹
k60 µM (FIG. 29 B) [4]: 0.27 min⁻¹
k60 µM, fold decrease against diketide-ACP4(4) with the same module [6]: 10 fold
Substance: diketide-ACP4(Ø) (DEBS ACP4 without linker, loaded with diketide) (from UniProt Q03132 3398-3488)
